One experiment concerns RAW 264.7 cells. Briefly: Transwell migration assay of monocytes/macrophages with laminin 421. To be noted: 100 nM, 24 h, laminin 421 1 μg/ml. In kind it is cell-based. Here is the method:
The effect on immune cell migration and invasion was investigated using N3 IgG antibody as a representative among the antibodies constructed in Example 1 above. Specific experimental methods were as follows. Transwell (Corning, #3421-5 mm) was coated with gelatin (0.5 mg/ml), and then RAW 264.7 cells (1×10^5 cells/well) were seeded in the top chamber. Serum-free DMEM (500 μl) containing laminin 421 (1 μg/ml) was placed in the bottom chamber. The top chamber was treated with each antibody at 100 nM. After 24 h, immobilization with 70% methanol was carried out for 30 min, and then staining with 50% hematoxylin was carried out for 30 min. The non-migrating cells present on the upper part of the membrane were removed by cotton swabs, and then the membrane was taken and mounted on the slide. The migrating cells present on the bottom surface of the membrane were observed by a high-resolution microscope (FIG. 20A), and the cells were counted on the obtained images and plotted on the graph (FIG. 20B).

Experiment [1] relates to human KRS N-terminal peptide fragments (F1-F5). Nature of the experiment: SPR (Biacore T200) of immobilized N3 IgG against human KRS N-terminal peptide fragments. In kind it is binding. Here is the method: First, N3 IgG antibody was immobilized to Biacore T200 (GE Healthcare) equipped with Series S sensor chip CM5 (GE Healthcare) by using an amine coupling kit (GE Healthcare). Then, the peptides shown in Table 4 below dissolved in PBS solution at corresponding concentrations were allowed to flow for 60 s. Then, PBS was allowed to flow for 5 min. Then, the binding ability was analyzed by Biacore T200 Evaluation software v2.0 (GE Healthcare).

In experiment [2] the target is T1, extracellularly exposed KRS N-terminal region (Homo sapiens, UniProt Q15046, T52D).
T1 construct: expressed in transfected cells; host or cells: A549
Briefly: Immunofluorescence staining of converted IgGs. In kind it is cell-based. The following applies: T52D-KRS (active mutant, myc tagged KRS). The method, then:
(§1) Immunofluorescence was performed to investigate whether the scFv clones selected in Example <1-5> actually bound to the KRS N-terminal region exposed on the cell membrane. In order to make a phenomenon in which KRS is exposed on the membrane, KRS-T52D mutant (active mutant) was used. […] After incubation for 24 h, the cells were incubated using serum-free media (RPMI 1640 media) at 37° C. for 1 h. Thereafter, the cells were treated with 10 μg/ml laminin (L2020; Sigma) and then incubated at 37° C. for 1 h.
(§2) The prepared samples were washed with PBS (4° C.), fixed by the treatment with 4% paraformaldehyde for 10 min, and then washed. The samples were blocked with CAS block for 10 min, and treated with the scFv and Myc antibodies for 2 h. Thereafter, the unbound antibodies were washed out, and incubated with secondary antibodies for 1 h in a dark room. DAPI staining was performed for 10 min before mounting.
(§3) To investigate whether the IgGs constructed in the present invention actually bound to the region of KRS exposed on the cell membrane, immunofluorescence was performed. Immunofluorescence staining was performed by the same method as described in Example <1-6> by using N3 IgG and N5 IgG as representatives.

Experiment [3] concerns the target T2, extracellularly exposed KRS N-terminal region (Homo sapiens, UniProt Q15046).
T2 construct: expressed in transfected cells; host or cells: A549
Briefly: Immunofluorescence staining of converted IgGs. The following applies: WT-KRS membrane localization induced by laminin treatment. The format is cell-based. The method, then: as §1, §2, §3

The next experiment addresses T3, KRS 1-207 aa (Homo sapiens, UniProt Q15046).
T3 construct: to the antigen (KRS 1-207 aa)
Nature of the experiment: SPR (Biacore 2000) binding of IgGs to immobilized KRS. To be noted: immobilized KRS 185 RU, antibody 6.25-100 nM. The method, then: The quantitative binding ability of the purified antibody proteins (N3 IgG and N5 IgG) to the antigen (KRS 1-207 aa) were measured using Biacore 2000 SPR (surface plasmon resonance) (GE healthcare, US) biosensor. After KRS was immobilized on a sensor chip (CM5, GE healthcare, US), antibody proteins (6.25-100 nM), which were serially diluted with HES buffer solution (10 mM HEPES, pH 7.4, 150 mM NaCl, 3 mM EDTA, 0.005% surfactant P20), were allowed to flow at a rate of 30 μl/min for 3 min, and 1 M NaCl/20 mM NaOH was allowed to flow at a rate of 30 μl/min for 3 min, thereby inducing the dissociation of proteins bound to the antigen. Mock IgG was used as control. Specific experiment conditions are as follows:
Immobilized level: 185 RU
Antibody: N3 IgG and N5 IgG
Running buffer: HBS-N buffer
Regeneration: 2 M NaCl, 20 mM NaOH (flow 30 ul/min 1 min)
The affinity was obtained from the kinetic rate constants (ka and kd) and equilibrium dissociation constants (KD) by using BIA evaluation ver. 3.2 software. FIGS. 6A-6B show SPR graph results of N3 IgG and N5 IgG, respectively. It was confirmed from FIGS. 6A-6B and Table 3 that N3 IgG and N5 IgG of the present invention has high specific binding ability to the KRS N-terminal region.
Background: In SPR one partner is held on a chip, and binding of the other changes the refractive index at the surface.

Experiment [4] concerns pulmonary arterial hypertension (PAH) models. Nature of the experiment: Blood pressure and cardiac output in monocrotaline PAH model. The format is in vivo, rat. To be noted: for CO / LVEDP / LVESP / RVEDP / RVESP: i.v. twice a week, 3 weeks, n = 5. Here is the method:
After three weeks, the rats were anesthetized with isoflurane, and measured for blood flow and pressure by using a high-precision pneumatic measurement system (MPVS cardiovascular pressure and volume system, model name: MPVS Ultra, manufacturer: Millar Instruments). The right ventricular end-systolic pressure (RVESP), right ventricular end-diastolic pressure, left ventricular end-systolic pressure, left ventricular end-diastolic pressure were measured using an exclusive catheter (Mikro-Tip rat pressure catheter, manufacturer: Millar Instruments). The cardiac output was measured using a perivascular blood flow probe (Transonic Flow probes, manufacturer: Millar Instruments), and experimental method thereof was performed by the same method as disclosed in the following literature: Pacher P, Nagayama T, Mukhopadhyay P, Batkai S, Kass D A. Measurement of cardiac function using pressure-volume conductance catheter technique in mice and rats. Nat Protoc 2008; 3(9):1422-34.
The models of PAH, which is a disease having a close relation between immune cell invasion and pathological phenomena, were treated with N3 IgG antibody (1 mpk or 10 mpk) for 3 weeks (i.v., twice a week), and then measured for right ventricular end-systolic pressure (RVESP), right ventricular end-diastolic pressure (RVEDP), left ventricular end-systolic pressure (LVESP), left ventricular end-diastolic pressure (LVEDP), and cardiac output (CO).

Where [5] appears, read: N3 IgG immobilized, peptides in PBS.

From patent US11685791B2, “Antibody binding specifically to N-terminal region of lysyl-tRNA synthetase exposed on cell membrane” (Zymedi Co., Ltd., priority 2017, dated 2023) come the findings set out here.

T3 sequence (Q15046 1-207): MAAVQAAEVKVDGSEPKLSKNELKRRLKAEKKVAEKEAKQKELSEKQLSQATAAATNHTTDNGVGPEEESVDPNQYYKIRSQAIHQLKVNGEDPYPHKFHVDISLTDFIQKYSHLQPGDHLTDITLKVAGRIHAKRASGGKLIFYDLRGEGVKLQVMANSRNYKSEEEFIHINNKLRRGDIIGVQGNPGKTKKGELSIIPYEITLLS
T1 sequence (Q15046 whole entry T52D): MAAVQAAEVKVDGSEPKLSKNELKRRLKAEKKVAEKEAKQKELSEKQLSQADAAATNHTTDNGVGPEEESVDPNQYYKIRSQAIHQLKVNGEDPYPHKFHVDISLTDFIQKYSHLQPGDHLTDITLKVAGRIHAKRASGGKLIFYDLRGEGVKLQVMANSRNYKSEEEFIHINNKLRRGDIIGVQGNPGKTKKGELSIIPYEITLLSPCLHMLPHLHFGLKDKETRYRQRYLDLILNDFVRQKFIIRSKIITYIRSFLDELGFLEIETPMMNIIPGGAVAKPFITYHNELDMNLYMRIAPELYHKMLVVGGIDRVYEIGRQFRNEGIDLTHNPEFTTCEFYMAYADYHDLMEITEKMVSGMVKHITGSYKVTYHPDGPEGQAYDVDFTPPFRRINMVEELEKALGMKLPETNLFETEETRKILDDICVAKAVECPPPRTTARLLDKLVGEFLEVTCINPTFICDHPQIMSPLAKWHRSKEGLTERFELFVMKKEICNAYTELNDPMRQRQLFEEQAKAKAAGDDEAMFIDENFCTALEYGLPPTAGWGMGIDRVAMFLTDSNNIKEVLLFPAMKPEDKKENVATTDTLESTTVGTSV
T2 sequence (Q15046 whole entry): as the sequence (Q15046 whole entry T52D) above, with D52T counted along it

B1: N3 IgG: IgG converted from N3 scFv; VH SEQ ID NO: 49, VL SEQ ID NO: 51; binds KRS N-terminal region (antibody, V domains shown)
VH: EVQLLESGGGLVQPGGSLRLSCAASGFTFSSYDMSWVRQAPGKGLEWVSAISYDNGNTYYADSVKGRFTISRDNSKNTLYLQMNSLRAEDTAVYYSARMALDFDYWGQGTLVTVSS
VL: QSVLTQPPSASGTPGQRVTISCTGSSSNIGSNYVTWYQQLPGTAPKLLIYDNSNRPSGVPDRFSGSKSGTSASLAISGLRSEDEADYYCASWDDSLSAYVFGGGTKLTVL
By Kd is commonly meant a measure of binding affinity in units of concentration. For B1, the “inhibition of LN421-dependent monocyte/macrophage migration” value in the experiment on RAW 264.7 cells is on record as “effectively inhibited”. In addition, in experiment [1] (setting [5]), the “binding to human KRS N-terminal epitopes F1-F5 (SPR)” value was “bound to epitopes F1, F2, F3, and F4, but not epitope F5”; the “rank of binding ability among human epitopes” value is “the binding ability to epitope F4 was strongest, and the binding ability to F3, F2, and F1 was stronger in that order”. In addition, the “main binding site in the KRS N-terminal region” value in experiment [1] (amino acid positions) is listed as “positions 15 to 29”. In experiment [2], the “binding to extracellularly exposed KRS N-terminal region (immunofluorescence)” value is given as “favorably bound”. Also, the “binding to extracellularly exposed KRS N-terminal region (immunofluorescence)” value in experiment [3] is “favorably bound specifically”. In the experiment with KRS 1-207 aa, this molecule gave a dissociation constant Kd of 83.4 nM, a ka of 109000 M⁻¹ s⁻¹ and a kd of 0.009055 s⁻¹. The “change in RVESP” value in experiment [4] (1 mpk and 10 mpk, PAH models) is “significantly reduced”. For the same molecule, in experiment [4] (MCT + N3 Ab 1 mpk), the CO is 74.0 ± 0.9 mL/min, the LVEDP is 2.6 ± 1.9 mmHg, the LVESP is 95.8 ± 4.8 mmHg and the RVEDP was 1.4 ± 2.2 mmHg. For the same molecule, the RVESP in experiment [4] (MCT + N3 Ab 1 mpk) turned out to be 45.0 ± 8.1 mmHg. Further, in experiment [4] (MCT + N3 Ab 10 mpk), the CO was found to be 59.8 ± 12.9 mL/min, the LVEDP stood at 4.6 ± 3.9 mmHg, the LVESP was found to be 93.4 ± 11.3 mmHg and the RVEDP is listed as 3.8 ± 1.3 mmHg. Also, the RVESP in experiment [4] (MCT + N3 Ab 10 mpk) is on record as 41.2 ± 7.7 mmHg. Also, in experiment [4] (PAH models, antibody administered group), the “change in LVESP” value is recorded as “significantly increased”.
